From the DeepSol protein solubility set

Test: soluble on expression in E. coli; label from the status in PepcDB or PDB records
With “MSLAPRDLIDIDRIFMEPAVADYPRGREILSRFPNAERIAVPSHWNIPELHGNEGSVEDWVRIKRSTLVLGVKKGLAMRPNGRSAHFIAPSTSNGCAMACAYCYVPRRKGFSNPISLFVNVEAVSAAIARHAAKQGPLPEPDQIDEAAWVYDLGENGDLSVDAMICDTVRDLVGLFRTLPNAKGSFATKAVNRDLLAYDPQGRTRIRFSLMPAPIARVVDVRTAPIRERIAAIDDFVAAGYEVHVNFSPVILYEGWEADWAELFAEIDGSISDAAKAQLKCEIIMLTHNAGLHEVNLGWHPKAEALLWRPDIQETKRSEGGGDNLRYRTGEGHHHHHH” the “soluble on expression in E. coli” value was “not soluble”. With “MNSKSAQGLAGLRNLGNTCFMNSILQCLSNTRELRDYCLQRLYMRDLHHGSNAHTALVEEFAKLIQTIWTSSPNDVVSPSEFKTQIQRYAPRFVGYNQQDAQEFLRFLLDGLHNEVNRVTLRPKSNPENLDHLPDDEKGRQMWRKYLEREDSRIGDLFVGQLKSSLTCTDCGYCSTVFDPFWDLSLPIAKRGYPEVTLMDCMRLFTKEDVLDGDEKPTCCRCRGRKRCIKKFSIQRFPKILVLHLKRFSESRIRTSKLTTFVNFPLRDLDLREFASENTNHAVYNLYAVSNHSGTTMGGHYTAYCRSPGTGEWHTFNDSSVTPMSSSQVRTSDAYLLFYELASPPSRMAAALEHHHHHH” the “soluble on expression in E. coli” value was “soluble”. For “MNVMLSKNYMMEKYNMSTTVGLPQFSHIKIEHFKSHLDALLKNHLEEIDRLLKENHHYTWDNLIYPLDSLADELERFWSPFAHMHAVMDSETIRESYEACLPLLSAYDAAIGHNQDLYEAIKSIDQHSLNPAQKKIIADSIQDFEL”, the “soluble on expression in E. coli” value was “not soluble”. For “MGSDKIHHHHHHMLSNLVSEFPQHEPRPANAPRALEGIRVVDFTHFIAGPFATMMLADMGAEVIKIEAPGRGDEFRYYPPAHPQDESIGAPYLWANRNKRSIALDLKHEDGRRIARELIATADVVAENFSTGVMERLGLGYEACRESNPELIYCSVSAYGREGAFADRLGFDPVAQAESGFVSMNGYPDRLGVRALSPVMDISTAMMASNAILGALVARERSGKGQAVEVSLFDNAVLMTGYATVQHLFTGDEPQRHGNTSPDTCPSGVFKASDGAFYINCGNNKIFHRLASQVLEMPELAADPVLADRNGRIARRDELFRILDEAFIRHPWAYWQQRMRAASIPCGEVRSVGEALRSAEARERKLVSRLEHPDLGWLPNISLPFRFSETPMEDPSPAPRIGEHSRDILTHVLGYEDDSASALLDSGVVYSSVEKARAG”, the “soluble on expression in E. coli” value was “not soluble”. With “MGSDKIHHHHHHLKPNNNTNKGVDYWTNRISELEMPALCSTVKSLEKLAKDDVSSLALLGRSVMHDNALTSRILRVANSAIYHKGSSQISTVSRAAIVLGFDAVRNICITAKLLSSLLESKNLAPNVYQRLIKLMAKAFQAAMIARMMLSHHDEEMQEEAFIASLLYHIGESAFWSIGGEFTEELDLTLCQCETPAEERSATREALGASFLQLTQSIARNWGLGELLIQALNYPEDQRPDIRAIFLADKLCDILSQPVLDKLELAKRMTQAAIFTGLEEKEFLVRMQRCANATHKLAEVYGAKVLLDYLPDPKRIVAAEPDLPPIPLDMPVYQVNLNIQLAKLRELTGFAINKADFNQIMQTVLEGILEGVGVDRCGVLLLSPSRKQLQPRVILGRDADAIKQEFIIDLSDKRGLFHQAMEHKAPLWVDDPSSKNGRSSARSCKRGTCHGRAFYWRLCWLIAK” the “soluble on expression in E. coli” value was “not soluble”. With “MGHERDWSLVQVALTDITARKKAEAYLEYLGKHDVLTKLHNRAFYSDELNRLERSALRPVSAIVIDLNGLKEANDKLGHDAGDALLRRVGEVLNGVVTAPNHAARIGGDEFAILLPGADKQVAAAMVDTVYELLKINNQFYSSAPLSLSLGVATTEAGETMESLVRRADMNMYEQKNALEHHHHHH” the “soluble on expression in E. coli” value was “soluble”. With “MSLKTRYVLSCLLLGSALSVSAQKMAVKSNLLSAANGALNAGVEYAFGPKSTFDLSGSIRPWKRTEGYVNKYWLIQPEYRYWTCQKFNGSFWGAYLNGAQFNVGGKKMPFGLFPWLKEHRYAGWLTGGGISYGYHIMLNRHWNIEVSVGVGYEYIDYKKYKCPDVCAELLEKGHYHYFGPSKASLSIVYIFNEGHHHHHH” the “soluble on expression in E. coli” value was “not soluble”. For “MSKTRIAFVGAGNMAASLIGGLRAQGVEASLICASAPGAETRERISTEHGIEVFADNAEAVKGADVVVLAVKPQMMKSVCQALKASLEAHQLIVSVAAGITCASLTQWLGDQPVVRCMPNTPSLLRQGASGLYATDKVSPTQREQAEQLLSAVGVAVWVEQEKHMDAVTAVSGSGPAYFFLMMEAMTAAGVKLGLPEDIAKKLTLQTALGSALIATGSNVDAGELRRRVASPGGTTEAAIKAFQAGGFEALVETALTAADHRAAELAEQLGKLEHHHHHH”, the “soluble on expression in E. coli” value was “not soluble”.
